Test results reported in patent US20100261660A1 (published 2010).
Residue numbers refer to the chain shown, from its start.

B1: Round 2 CTLA4 A-B11-5 (ligand)
chain: ITPKSATKRVKETVMLSCDYSTSTEELTSLRIYWQKDSKMVLAILPGKVQVWPEYKNRTITDMNDNPRIVILALRLSDSGTYTCVIQKPDLKGAYKLEHLTSVRLMIRADFPVPTINDLGNPSPNIRRLICSTSGGFPRPHLYWLENGEELNATNTTLSQDPETKLYMISSELDFNMTSNHSFLCLVKYGDLTVSQTFYWQESKPTPSANQHLTWTIIIPVSAFGISVIIAVILTCLTCRNAAIRRQRRENEVEMQSCSQSP
B2: Round 2 CTLA4 A-F6-9 (ligand)
chain: B1 chain with A6V
B3: Round 2 CTLA4 A-G8-1 (ligand)
chain: B1 chain with A6V, S21N, R75P
B4: Round 1 (R1) CTLA4BP-5 (ligand)
chain: VIHVTKEVKEVATLSCGHNVSVEELAQTRIHWQKEKKMVLTMMSGDMNIWPEYKNRTIFDITNNLSIVILALRPSDEGTYECVVLKYEKDAFKREHLAEVTLSVKADFPTPSISDFEIPPSNIRRIICSTSGGFPEPHLSWLENGEELNAINTTVSQDPGTELYTVSSKLDFNMTTNHSFMCLIKYGHLRVNQTFNWNTPKQEHFPDNLLPSWAITLISVNGIFVICCLTYCFAPRCRERRRNERLRRESVRPV
notes: also called R1-5
B5: Round 2 CTLA4BP 5x2-d7 (ligand)
chain: B4 chain with V4M, H18L, T101M, G160E, E162G
B6: Round 2 CTLA4BP 2x2-f12 (ligand)
chain: B4 chain with E81G, K86E, T101M, G160E, T165A, V191A
B7: Round 2 CTLA4BP 2x1-f10 (ligand)
chain: B4 chain with T101M, S114T, H138R, S140A, L142M, N144D, T165A, F224S, R252C
B8: Round 1 CTLA4BP-11 (ligand)
chain: B4 chain with V4M, H31Y, T101M, S114T, S140F, G160E, T165A, P200T, Y231H, R252H
notes: also called R1-11; R1 CTLA-4BP-11
B9: Round 2 CTLA4BP 2x2-f1 (ligand)
chain: B4 chain with P74L, P120T, S140F, V155A, G160E, H178R, M181V
B10: Round 2 CTLA4BP 5x2-e12 (ligand)
chain: B4 chain with D46G, P120T, N152S, T165A, H178R, M181V, P200T
B11: Round 2 CTLA4BP 5x2-b7 (ligand)
chain: B4 chain with S114T, T176A, M181V, V220A
B12: Round 1 CTLA4BP-13 (ligand)
chain: VIHVTKEVKEVATLSCGHNVSVEELAQTRIYWQKEKKMVLTMMSGDMNIWPEYKNRTIFDITNNLSIVILALRPSDEGTYECVVLKYEKDAFKREHLAEVTLSVKADFPTPSISDFEIPTSNIRRIICSTSGGFPEPHLFGLENGEEINAINTTASQDPETELYTVSSKLDFNMTPNRSFVCLIKYGHLRVNQTFNWNTPKQEHFPDNLLPSWAITLISANGIFVICCLTYCFAPRCRERKSNERLRRESVRPV
notes: also called R1-13; R1 CTLA-4BP-13
B13: Round 2 CTLA4BP 2x1-c4 (ligand)
chain: B4 chain with S15P, T101M, S114T, S140F, T165A, S179N
B14: Round 2 CTLA4BP 5x1-d7 (ligand)
chain: VIHVTKEVKEVATLSCGHNVPVEELAQTRIYWQKEKKMVLTMMSGDMNIWPEYKNRTIFDITNNLSIVILALRPSDEGTYGCVVLEYEKDAFKREHLAEVMLSVKADFPTPSITDLEIPPSNIRRIICSTSGGFPEPHLFWLENGEELNAINTTASQDPETELYAVSSKLDFNMTTNHSFMCLIKYGHLRVNQTFNWNTPKQEHFPDNLLPSWAITLISANGIFVICCLTYCFAPRCRERRRNERLRRESVHPV
B15: Round 1 CTLA4BP-27 (ligand)
chain: B4 chain with H18L, H31Y, T101M, G160E, T176A, M181V, R245T
notes: also called R1-27; R1 CTLA-4BP-27
B16: Round 2 CTLA4BP 5x3-c3 (ligand)
chain: B4 chain with V4M, H18P, H31Y, P120T, Y231H, R252C
B17: Round 2 CTLA4BP 5x2-f3 (ligand)
chain: B12 chain with S44P, K86R, F140S, G141W, I148L, P176T, Y231H
B18: Round 2 CTLA4BP 2x1-b12 (ligand)
chain: VIHMTKEVKEVATLSCGHNVSVEELAQTRIYWQKEKKMVLTMMSGDMNIWPEYKNRTIFDITNNLSIVILALRPSDEGTYECVALKYEKDAFKQEHLAEVTLSVKADFPTPSISDFEIPPSNIRRIICSTSGGFPEPRLAWMEDGEELNAINTTVSQDPETELYTVSSKLDFNMTANHSFMCLIKYGHLRVNQTFNWNTPKQEHFPDNLLPSWAITLISVNGIFVICCLTYCFAPRCRERRRNERLRRESVCPV
B19: Round 2 CTLA4BP 2x4-h11 (ligand)
chain: B4 chain with H31Y, K86E, T101M, T165A, T230A, E239G
B20: Round 2 CTLA4BP 5x2-h11 (ligand)
chain: VIHVTKKVKEVATLSCGHNVSVEELAQTRIYWQKGKKMVLTMMSGDMNIWPECKNRTIFDITNNLSIVILALRPSDEGTYECAVLKYEKDAFKREHLAEVTLSVKADFPTPSISDFEIPTSNIRRIICSTSGGFPEPHLFWLENGEELNAINTTASQDPETELYAVSSKLDFNMTTNHSFMCLIKYGHLRVNQTFNWNTPKQEHFPDNLLPSWAITLISVNGIFVICCLTYCFAPRCRERKSNERLRRESVRPV
B21: Round 2 CTLA4BP 2x1-h12 (ligand)
chain: B4 chain with H18L, T101M, S114T, V220A, R241K, R242S, R252C
B22: Round 2 CTLA4BP 2x1-g8 (ligand)
chain: B4 chain with I67V, S114T, H178R, M181V, R241K, R242S
B23: Round 2 CTLA4BP 5x3-c4 (ligand)
chain: B18 chain with M4V, A84V, Q94R, V155A, A176T, H178R, M181V, L210F, C252R
B24: Round 2 CTLA4BP 5x1-f1 (ligand)
chain: B4 chain with H18L, H31Y, Y53H, S114T, S140F, V155A, G160E, T176A, M181V, R245T

Target: T1, Soluble CTLA-4-Ig (extracellular domain of human CTLA-4 fused to the Fc portion of human IgG1) (human, UniProt P16410 36-161, FITC-conjugated in the FACS binding assays)
T1 construct: extracellular domain; bought from R&D Systems; also called sCTLA-4-Ig; CTLA-4-Ig Fc; not shown: Fc portion of human IgG1
Assay: competitive FACS on transfected cells, FITC-sCTLA-4-Ig with biotin-sCD28-Ig; grade 0-2 of CTLA-4/CD28 ratio vs WT hB7-1

T1 sequence (P16410 36-161): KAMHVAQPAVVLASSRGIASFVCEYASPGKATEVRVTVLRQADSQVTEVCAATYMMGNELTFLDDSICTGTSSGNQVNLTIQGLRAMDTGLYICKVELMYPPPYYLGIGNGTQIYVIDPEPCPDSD

| Binder | Binding Score |
| --- | --- |
| B1 | 1 |
| B2 | 1 |
| B3 | 1 |
| B4 | 2 |
| B5 | 1 |
| B6 | 1 |
| B7 | 1 |
| B8 | 1 |
| B9 | 1 |
| B10 | 0 |
| B11 | 1 |
| B12 | 1 |
| B13 | 1 |
| B14 | 1 |
| B15 | 1 |
| B16 | 1 |
| B17 | 0 |
| B18 | 1 |
| B19 | 0 |
| B20 | 1 |
| B21 | 1 |
| B22 | 1 |
| B23 | 1 |
| B24 | 1 |
